# Assay results as given in the supplement of paper PMC7125110.
# ± gives the standard error. Fewer inactive variants are shown than the library holds.
# B1: glmS ribozyme (parent)
# chain: AUAAAAGCGCCAGAACUACAGAAAUGUAGUUGACGAGGAGGAGGUUUAUCGAAUUUUCGGCGGAUGCCUCCAAA
# Variants of: B1
# Assay: self-cleavage kobs at 10000 uM GlcN6P; higher = faster cleavage; RNA array
# Conditions: with glucosamine-6-phosphate
# Procedure, shortened: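 Glucosamine-6-phosphate (40 μM to 10 mM) in HEPES/KCl/Mg(OAc)2 buffer was flowed over sequenced MiSeq chips, and tiles were imaged over ~14 h. Barcoded ribozyme variants there had been transcribed in situ by E. coli RNA polymerase and were tracked through a hybridised Cy3 probe at 37 °C. One- or two-exponential decay fits to per-tile medians, normalised to baseline and to non-cleaving reference variants, gave kobs. kcat and KM came from weighted Michaelis–Menten fits across concentrations.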
row,Variant,self-cleavage kobs at 10000 uM GlcN6P [s⁻¹]
1,AUAAAAGCGCCAGAACUACAGAAAUGUAGAUGACGAGGAGGGGGUAUAUCGAAUUUUCGGCGGAUGCCUCCAAA,0.000409 ± 9.1e-05
2,AUAAAAGCGCCAGAUAUACAGAAAUGUAGUUGACGAGGUGGAGGUUUAUCGAAUUUUCGGCGGAUGCCUCCAAA,0.000273 ± 6.1e-05
3,AUAAAAGCGCCAGAACUACAGAAAUGUAGAUGGCGAGGAGGAGGUUUAUCGAAUUUUCGGGGGAUGCCUACAAA,< 1e-05
4,AUAAAAGCGCCAGAACUACAGAAAUGUACUUGACGAGGAGGAGGAAUAUCGUAUUUUCGGCGGAUGCCUCCAAA,3.37e-05 ± 1.4e-05
5,AUAAAAGCGCCAGAACUAGAGAAAUGUAGUUGACGAAGAGGAGGUUUAUCGAAUUUUCGGCGGAUGCCUCCAAA,0.00215 ± 0.00044
6,AUAAAAGCGCCAGAGCUACAGAAAUGUAAUUAACGAGGAGGAGGUUUAUCGAAUUUUCGGCGGGUGCCUCCAAA,0.000605 ± 0.00015
7,AUAAAAGCGCCAGAACUACAGAAAUGUCGUUGACGAGGAGGAGGUUUAUCGAAUUUUCGGCGGAUGCUUCCAAA,0.00228 ± 0.00063
8,AUAAAAGCGCCAGAGCUACAGAAAUGUAGUUGACGAGGAGGAGGUUUAUCGAAUUUUCGGGCGAUGCCUCCAAA,< 1e-05
9,AUAAAAGCGCCAGAAUUACAGAAAUGUAGUUGAUGAGGAGGAGAUUUAUCGAAUUUUCGGCGGAUGCCUCCAAA,< 1e-05
10,AUAAAAGCGCCAGAGCUACAGAAAUGUAGUUGACGAGGAGGAGGUGUAUCGAAUUUUCGGCGGAUGGCUCCAAA,0.000339 ± 6e-05
11,AUAAAAGCGCCAGAACUACAGAAAUGUAUUUGACGAGGCAGAGGUUUAUCGAAUUUUCGGCGGAUACCUCCAAA,6.36e-05 ± 1.3e-05
12,AUAAAAGCGCCAGAUCUACAGAAAUGUAGUUGACGAGUAGGAGGUUUAUCGAAUUUCCGGUGGAUGCCUCCAAA,< 1e-05
13,AUAAAAGCGCCAGAGCUACAGAAAUGUAGUUGACGAGGAGGAGGUUUAGCGAAUUUUCGACGGAUGCCUCCAAA,< 1e-05
14,AUAAAAGCGCCAGAGCUACAGAAAUGUAGUUGACGAGGAGGAGUUUUAUCGAAUUUUUGGCGGAUGACUCCAAA,2.9e-05 ± 1.2e-05
15,AUAAAAGCGCCAGAACUACAGAAAUGUAUUUGACGAGGAGGAGGUUUAUCGACUUUUCGACGGAUGCCUCCAAA,< 1e-05
16,AUAAAAGCGCCAGAACUACAGAAAUGUAGAUAACGAGGAGCAGGUUUAUCCAAUUUUCGGAGGAUGCCUCUAAA,< 1e-05
17,AUAAAAGCGCCAGAACUACAGAAAUGUACUCGACGAGGAGGAGGUUUAUCGAAUUUUCGGCGGAUACCUCCAAA,0.000105 ± 2.5e-05
18,AUAAAAGCGCCAGAACUACAGAAAUGUACUUGACGAGGAGGAGAUUUAUCGAAUUUUGGGCGGAUGCCUCCAAA,< 1e-05
19,AUAAAAGCGCCAGAUCUACAGAAAUGUAGUUGACGAGGGGGAGGUUUAUCGAAUUUCCGGCGGAUGCCUCCAAA,6.65e-05 ± 1.8e-05

row,Variant,self-cleavage kobs at 10000 uM GlcN6P [s⁻¹]
1,AUAAAAGCGCCAGAAAUACAGAAAUGUAUUUGACGAGGAGGAGGUUUAUCGAAUUUUAGGCGGAUGCCUCCAAA,0.000415 ± 0.00011
2,AUAAAAGCGCCAGAACUACAGAAAUGUAGCUGACUAGGAGGAUGUUUAUCGAAUUUUCGGCGGAUUCCUCCAAA,< 1e-05
3,AUAAAAGCGCCAGAACUACAGAAAUGUAGCUGACGUGGAGGAGUUUUAUCGAAUUUUCGGCGGAUGGCUCCAAA,< 1e-05
4,AUAAAAGCGCCAGAUCUACAGAAAUGUAGUUGACGAGGAGGAGGUUUAUUGAAUUUUCGGGGGGUGCCUCCAAA,< 1e-05
5,AUAAAAGCGCCAGAAAUACAGAAAUGUAGCUGACGAGGAGGAGGUUUAUCGACUUUUCGGCGGAUGCCUGCAAA,< 1e-05
6,AUAAAAGCGCCAGAACUACAGAAAUGUACUUGACGAGGAGGAGGUUUAUCGAAUUUUCGGCGGGUGCCUUCAAA,3.15e-05 ± 1.4e-05
7,AUAAAAGCGCCAGAACUACAGAAAUGUAGCUGACGAGGAGGAGGUUUAUCGAAUUUUCGGCGGAUACCUCUAAA,0.000123 ± 2.3e-05
8,AUAAAAGCGCCAGAACUACAGAAAUGUAGCUGACGAGGAGGAGGUUUAUCGAAGUUUCGGCGGAUGGCUCCAAA,2.88e-05 ± 1.3e-05
9,AUAAAAGCGCCAGAUCUACAGAAAUGUAGUUGACGAGGAUGAGGUUUAUCGAAAUUUCGGCGGAUGCCUCCAAA,7.33e-05 ± 1.6e-05
10,AUAAAAGCGCCAGAAGUACAGAAAUGUAGUUGACGAGGAGGAGGUUUAUGGCAUAUUCGGCGGAUGCCUUCAAA,4.88e-05 ± 1.9e-05
11,AUAAAAGCGCCAGAGCUACAGAAAUGUAGUUUACGAGGAGGAUGUUUAUCGAAUUUUCGGGGUGUACCUCCAAA,< 1e-05
12,AUAAAAGCGCCAGAAGUACAGAAAUGUAGUUGACGAGGAGGAGGUUUAUCGAAUUUUCGGCGGAUGACUUCAAA,9.5e-05 ± 2.1e-05
13,AUAAAAGCGCCAGAACUACAGAAAUGUAGCUGACGAGGAAGAGGUUUAUCGAAUUAUCGGCCGAUGCCUCCAAA,< 1e-05
14,AUAAAAGCGCCAGAACUACAGAAAUGUAGCUCACGAGGAAGAGGUUUAUCGAAUUUUCGGCGGAUGCCUCCAAA,6.96e-05 ± 1.4e-05
15,AUAAAAGCGCCAGAAGUACAGAAAUGUAGUUGACGAGGAGGAGGGAUAUCGAAUUUUCGGCGGAUGCCUCCAAA,0.000584 ± 0.00015
16,AUAAAAGCGCCAGAAUUACAGAAAUGUAGUUGACGAGGAGGAGGUUUAUCGAAUUUUCGGCCGAUGCCUCCAAA,< 1e-05
17,AUAAAAGCGCCAGAACUACAGAAAUGUAGAUGACGACGAGGAGGUUUAUUGAAUUUUCGGCGGAUGCCUCCAAA,< 1e-05
18,AUAAAAGCGCCAGAAGUACAGAAAUGUAGUUGACGAGGAGGAGGUGUAUCGAAUUUUCGGCGGAUGUCUCCAAA,0.000334 ± 6.9e-05
